Assay results: patent US20140087995A1 (published 2014)
Numbered stars: 1 amine (or outer) side, 2 acyl side, 3 side chain; on linkers, the order of the positions; unused ones are H or OH. Bridge positions count the residues as written; N and C are the ends. Side chains are listed from the residue outwards. Ends that are not written are not given here. * marks the point of attachment. C20 diacid = O=C(O)CCCCCCCCCCCCCCCCCCC(=O)*; γGlu = O=C(O)[C@H](CCC(=O)[*:2])N[*:1]; AEEA = NCCOCCOCC(=O)O

T1: human amylin receptor (amylin 3(a) receptor: human calcitonin receptor co-expressed with RAMP-3) (human, UniProt P30988 25-474; O60896 24-148, limits assumed)
T1 sequence (looked up) 1: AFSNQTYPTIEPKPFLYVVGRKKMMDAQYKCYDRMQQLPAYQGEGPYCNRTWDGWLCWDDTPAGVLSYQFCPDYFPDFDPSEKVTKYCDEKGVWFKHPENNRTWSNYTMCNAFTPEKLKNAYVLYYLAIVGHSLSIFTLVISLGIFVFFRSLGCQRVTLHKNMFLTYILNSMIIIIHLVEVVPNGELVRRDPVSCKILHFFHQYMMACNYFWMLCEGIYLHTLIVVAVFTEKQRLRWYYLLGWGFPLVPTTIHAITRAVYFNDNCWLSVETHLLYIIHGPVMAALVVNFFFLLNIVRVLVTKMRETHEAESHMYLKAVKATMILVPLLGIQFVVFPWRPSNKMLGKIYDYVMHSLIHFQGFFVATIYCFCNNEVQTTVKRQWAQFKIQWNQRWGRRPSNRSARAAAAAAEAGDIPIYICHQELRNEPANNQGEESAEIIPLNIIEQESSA
T1 sequence (looked up) 2: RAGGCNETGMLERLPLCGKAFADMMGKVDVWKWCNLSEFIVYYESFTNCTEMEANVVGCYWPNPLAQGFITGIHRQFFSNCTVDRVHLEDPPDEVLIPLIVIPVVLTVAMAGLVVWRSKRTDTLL

T2: human calcitonin receptor (human, UniProt P30988 25-474)
T2 sequence (looked up): T1 sequence (looked up) 1

B1: N^ε1-[2-[2-[2-[[(4S)-4-carboxy-4-(19-carboxynonadecanoylamino)butanoyl]amino]ethoxy]ethoxy]acetyl]-[Thr14,Arg17,Pro21,Pro27,Pro31]-h-amylin (peptide)
peptide: K([AEEA-γGlu-C20 diacid])CNTATCATQRLATFLRHSSPNFGAIPSSTPVGSNTY-NH2
modifications: disulfide 2-7; N-terminus assumed
SMILES: CC[C@H](C)[C@H](NC(=O)[C@H](C)NC(=O)CNC(=O)[C@H](Cc1ccccc1)NC(=O)[C@H](CC(N)=O)NC(=O)[C@@H]1CCCN1C(=O)[C@H](CO)NC(=O)[C@H](CO)NC(=O)[C@H](Cc1c[nH]cn1)NC(=O)[C@H](CCCNC(=N)N)NC(=O)[C@H](CC(C)C)NC(=O)[C@H](Cc1ccccc1)NC(=O)[C@@H](NC(=O)[C@H](C)NC(=O)[C@H](CC(C)C)NC(=O)[C@H](CCCNC(=N)N)NC(=O)[C@H](CCC(N)=O)NC(=O)[C@@H](NC(=O)[C@H](C)NC(=O)[C@@H]1CSSC[C@H](NC(=O)[C@@H](N)CCCCNC(=O)COCCOCCNC(=O)CC[C@H](NC(=O)CCCCCCCCCCCCCCCCCCC(=O)O)C(=O)O)C(=O)N[C@@H](CC(N)=O)C(=O)N[C@@H]([C@@H](C)O)C(=O)N[C@@H](C)C(=O)N[C@@H]([C@@H](C)O)C(=O)N1)[C@@H](C)O)[C@@H](C)O)C(=O)N1CCC[C@H]1C(=O)N[C@@H](CO)C(=O)N[C@@H](CO)C(=O)N[C@H](C(=O)N1CCC[C@H]1C(=O)N[C@H](C(=O)NCC(=O)N[C@@H](CO)C(=O)N[C@@H](CC(N)=O)C(=O)N[C@H](C(=O)N[C@@H](Cc1ccc(O)cc1)C(N)=O)[C@@H](C)O)C(C)C)[C@@H](C)O
notes: also called compound 75
B2: N^ε1-[(4S)-4-carboxy-4-(19-carboxynonadecanoylamino)butanoyl]-[Arg17,Pro21,Pro27,His34]-h-amylin (peptide)
peptide: K([γGlu-C20 diacid])CNTATCATQRLANFLRHSSPNFGAIPSSTNVGHNTY-NH2
modifications: disulfide 2-7; N-terminus assumed
SMILES: CC[C@H](C)[C@H](NC(=O)[C@H](C)NC(=O)CNC(=O)[C@H](Cc1ccccc1)NC(=O)[C@H](CC(N)=O)NC(=O)[C@@H]1CCCN1C(=O)[C@H](CO)NC(=O)[C@H](CO)NC(=O)[C@H](Cc1c[nH]cn1)NC(=O)[C@H](CCCNC(=N)N)NC(=O)[C@H](CC(C)C)NC(=O)[C@H](Cc1ccccc1)NC(=O)[C@H](CC(N)=O)NC(=O)[C@H](C)NC(=O)[C@H](CC(C)C)NC(=O)[C@H](CCCNC(=N)N)NC(=O)[C@H](CCC(N)=O)NC(=O)[C@@H](NC(=O)[C@H](C)NC(=O)[C@@H]1CSSC[C@H](NC(=O)[C@@H](N)CCCCNC(=O)CC[C@H](NC(=O)CCCCCCCCCCCCCCCCCCC(=O)O)C(=O)O)C(=O)N[C@@H](CC(N)=O)C(=O)N[C@@H]([C@@H](C)O)C(=O)N[C@@H](C)C(=O)N[C@@H]([C@@H](C)O)C(=O)N1)[C@@H](C)O)C(=O)N1CCC[C@H]1C(=O)N[C@@H](CO)C(=O)N[C@@H](CO)C(=O)N[C@H](C(=O)N[C@@H](CC(N)=O)C(=O)N[C@H](C(=O)NCC(=O)N[C@@H](Cc1c[nH]cn1)C(=O)N[C@@H](CC(N)=O)C(=O)N[C@H](C(=O)N[C@@H](Cc1ccc(O)cc1)C(N)=O)[C@@H](C)O)C(C)C)[C@@H](C)O
notes: also called compound 77
B3: N^ε1-[(4S)-4-carboxy-4-(19-carboxynonadecanoylamino)butanoyl]-[Arg14,Arg17,Pro21,Pro27,Pro31]-h-amylin (peptide)
peptide: K([γGlu-C20 diacid])CNTATCATQRLARFLRHSSPNFGAIPSSTPVGSNTY-NH2
modifications: disulfide 2-7; N-terminus assumed
SMILES: CC[C@H](C)[C@H](NC(=O)[C@H](C)NC(=O)CNC(=O)[C@H](Cc1ccccc1)NC(=O)[C@H](CC(N)=O)NC(=O)[C@@H]1CCCN1C(=O)[C@H](CO)NC(=O)[C@H](CO)NC(=O)[C@H](Cc1c[nH]cn1)NC(=O)[C@H](CCCNC(=N)N)NC(=O)[C@H](CC(C)C)NC(=O)[C@H](Cc1ccccc1)NC(=O)[C@H](CCCNC(=N)N)NC(=O)[C@H](C)NC(=O)[C@H](CC(C)C)NC(=O)[C@H](CCCNC(=N)N)NC(=O)[C@H](CCC(N)=O)NC(=O)[C@@H](NC(=O)[C@H](C)NC(=O)[C@@H]1CSSC[C@H](NC(=O)[C@@H](N)CCCCNC(=O)CC[C@H](NC(=O)CCCCCCCCCCCCCCCCCCC(=O)O)C(=O)O)C(=O)N[C@@H](CC(N)=O)C(=O)N[C@@H]([C@@H](C)O)C(=O)N[C@@H](C)C(=O)N[C@@H]([C@@H](C)O)C(=O)N1)[C@@H](C)O)C(=O)N1CCC[C@H]1C(=O)N[C@@H](CO)C(=O)N[C@@H](CO)C(=O)N[C@H](C(=O)N1CCC[C@H]1C(=O)N[C@H](C(=O)NCC(=O)N[C@@H](CO)C(=O)N[C@@H](CC(N)=O)C(=O)N[C@H](C(=O)N[C@@H](Cc1ccc(O)cc1)C(N)=O)[C@@H](C)O)C(C)C)[C@@H](C)O
notes: also called compound 63
B4: N^ε1-[(4S)-4-carboxy-4-(19-carboxynonadecanoylamino)butanoyl]-[Glu14,Arg17,Pro21,Pro27,Arg35]-h-amylin (peptide)
peptide: K([γGlu-C20 diacid])CNTATCATQRLAEFLRHSSPNFGAIPSSTNVGSRTY-NH2
modifications: disulfide 2-7; N-terminus assumed
SMILES: CC[C@H](C)[C@H](NC(=O)[C@H](C)NC(=O)CNC(=O)[C@H](Cc1ccccc1)NC(=O)[C@H](CC(N)=O)NC(=O)[C@@H]1CCCN1C(=O)[C@H](CO)NC(=O)[C@H](CO)NC(=O)[C@H](Cc1c[nH]cn1)NC(=O)[C@H](CCCNC(=N)N)NC(=O)[C@H](CC(C)C)NC(=O)[C@H](Cc1ccccc1)NC(=O)[C@H](CCC(=O)O)NC(=O)[C@H](C)NC(=O)[C@H](CC(C)C)NC(=O)[C@H](CCCNC(=N)N)NC(=O)[C@H](CCC(N)=O)NC(=O)[C@@H](NC(=O)[C@H](C)NC(=O)[C@@H]1CSSC[C@H](NC(=O)[C@@H](N)CCCCNC(=O)CC[C@H](NC(=O)CCCCCCCCCCCCCCCCCCC(=O)O)C(=O)O)C(=O)N[C@@H](CC(N)=O)C(=O)N[C@@H]([C@@H](C)O)C(=O)N[C@@H](C)C(=O)N[C@@H]([C@@H](C)O)C(=O)N1)[C@@H](C)O)C(=O)N1CCC[C@H]1C(=O)N[C@@H](CO)C(=O)N[C@@H](CO)C(=O)N[C@H](C(=O)N[C@@H](CC(N)=O)C(=O)N[C@H](C(=O)NCC(=O)N[C@@H](CO)C(=O)N[C@@H](CCCNC(=N)N)C(=O)N[C@H](C(=O)N[C@@H](Cc1ccc(O)cc1)C(N)=O)[C@@H](C)O)C(C)C)[C@@H](C)O
notes: also called compound 51
B5: N^ε1-[(4S)-4-carboxy-4-(19-carboxynonadecanoylamino)butanoyl]-[Arg14,Arg17,Pro21,Pro27,Pro34]-h-amylin (peptide)
peptide: K([γGlu-C20 diacid])CNTATCATQRLARFLRHSSPNFGAIPSSTNVGPNTY-NH2
modifications: disulfide 2-7; N-terminus assumed
SMILES: CC[C@H](C)[C@H](NC(=O)[C@H](C)NC(=O)CNC(=O)[C@H](Cc1ccccc1)NC(=O)[C@H](CC(N)=O)NC(=O)[C@@H]1CCCN1C(=O)[C@H](CO)NC(=O)[C@H](CO)NC(=O)[C@H](Cc1c[nH]cn1)NC(=O)[C@H](CCCNC(=N)N)NC(=O)[C@H](CC(C)C)NC(=O)[C@H](Cc1ccccc1)NC(=O)[C@H](CCCNC(=N)N)NC(=O)[C@H](C)NC(=O)[C@H](CC(C)C)NC(=O)[C@H](CCCNC(=N)N)NC(=O)[C@H](CCC(N)=O)NC(=O)[C@@H](NC(=O)[C@H](C)NC(=O)[C@@H]1CSSC[C@H](NC(=O)[C@@H](N)CCCCNC(=O)CC[C@H](NC(=O)CCCCCCCCCCCCCCCCCCC(=O)O)C(=O)O)C(=O)N[C@@H](CC(N)=O)C(=O)N[C@@H]([C@@H](C)O)C(=O)N[C@@H](C)C(=O)N[C@@H]([C@@H](C)O)C(=O)N1)[C@@H](C)O)C(=O)N1CCC[C@H]1C(=O)N[C@@H](CO)C(=O)N[C@@H](CO)C(=O)N[C@H](C(=O)N[C@@H](CC(N)=O)C(=O)N[C@H](C(=O)NCC(=O)N1CCC[C@H]1C(=O)N[C@@H](CC(N)=O)C(=O)N[C@H](C(=O)N[C@@H](Cc1ccc(O)cc1)C(N)=O)[C@@H](C)O)C(C)C)[C@@H](C)O
notes: also called compound 65
B6: N^ε1-[(4S)-4-carboxy-4-(19-carboxynonadecanoylamino)butanoyl]-[Arg17,Pro21,Pro27,His35]-h-amylin (peptide)
peptide: K([γGlu-C20 diacid])CNTATCATQRLANFLRHSSPNFGAIPSSTNVGSHTY-NH2
modifications: disulfide 2-7; N-terminus assumed
SMILES: CC[C@H](C)[C@H](NC(=O)[C@H](C)NC(=O)CNC(=O)[C@H](Cc1ccccc1)NC(=O)[C@H](CC(N)=O)NC(=O)[C@@H]1CCCN1C(=O)[C@H](CO)NC(=O)[C@H](CO)NC(=O)[C@H](Cc1c[nH]cn1)NC(=O)[C@H](CCCNC(=N)N)NC(=O)[C@H](CC(C)C)NC(=O)[C@H](Cc1ccccc1)NC(=O)[C@H](CC(N)=O)NC(=O)[C@H](C)NC(=O)[C@H](CC(C)C)NC(=O)[C@H](CCCNC(=N)N)NC(=O)[C@H](CCC(N)=O)NC(=O)[C@@H](NC(=O)[C@H](C)NC(=O)[C@@H]1CSSC[C@H](NC(=O)[C@@H](N)CCCCNC(=O)CC[C@H](NC(=O)CCCCCCCCCCCCCCCCCCC(=O)O)C(=O)O)C(=O)N[C@@H](CC(N)=O)C(=O)N[C@@H]([C@@H](C)O)C(=O)N[C@@H](C)C(=O)N[C@@H]([C@@H](C)O)C(=O)N1)[C@@H](C)O)C(=O)N1CCC[C@H]1C(=O)N[C@@H](CO)C(=O)N[C@@H](CO)C(=O)N[C@H](C(=O)N[C@@H](CC(N)=O)C(=O)N[C@H](C(=O)NCC(=O)N[C@@H](CO)C(=O)N[C@@H](Cc1c[nH]cn1)C(=O)N[C@H](C(=O)N[C@@H](Cc1ccc(O)cc1)C(N)=O)[C@@H](C)O)C(C)C)[C@@H](C)O
notes: also called compound 60

These binders were tested against T1, human amylin receptor (amylin 3(a) …) (assay: cell-based or functional assay).

Q: B1 was tested. Which “hAmylin-R funct. EC50” value did it give?
A: Its value is 0.296 nM.

Q: Which “hAmylin-R funct. EC50” value does the source give for B2 here?
A: Its value is 0.145 nM.

Q: How did the “hAmylin-R funct. EC50” value turn out when B3 was run?
A: The value was 0.037 nM.

Q: For B4, which “hAmylin-R funct. EC50” value is on record?
A: Its value is 0.372 nM.

Q: Which “hAmylin-R funct. EC50” value does the source give for B5 here?
A: Its value is 0.242 nM.

Q: With B6 as the binder, how does the “hAmylin-R funct. EC50” value read?
A: Its value is 0.351 nM.

Each binder was assayed against T2, human calcitonin receptor (assay: cell-based or functional assay).

Q: How did the “Ratio hCT/hAmylin funct. (hCTR EC50 against hAmylin-R EC50)” value turn out when B1 was run?
A: The value was 30.6.

Q: What about the “hCTR funct. EC50” value of the same binder?
A: The value was 9.07 nM.

Q: What does the source list for B2?
A: Ratio hCT/hAmylin funct. (hCTR EC50 against hAmylin-R EC50): 37.3; hCTR funct. EC50: 5.4 nM

Q: With B3 as the binder, how does the “Ratio hCT/hAmylin funct. (hCTR EC50 against hAmylin-R EC50)” value read?
A: Its value is 139.

Q: And the “hCTR funct. EC50” value?
A: The value was 5.13 nM.

Q: How did the “Ratio hCT/hAmylin funct. (hCTR EC50 against hAmylin-R EC50)” value turn out when B4 was run?
A: Its value is 14.

Q: And the “hCTR funct. EC50” value?
A: The value was 5.22 nM.

Q: With B5 as the binder, how does the “Ratio hCT/hAmylin funct. (hCTR EC50 against hAmylin-R EC50)” value read?
A: The value was 38.6.

Q: What about the “hCTR funct. EC50” value of the same binder?
A: The value was 9.33 nM.

Q: What does the source list for B6?
A: Ratio hCT/hAmylin funct. (hCTR EC50 against hAmylin-R EC50): 15.3; hCTR funct. EC50: 5.36 nM
